Test results as given in patent publication US20160205946A1, “ENZYMATIC IN SITU PREPARATION OF PERACID-BASED REMOVABLE ANTIMICROBIAL COATING COMPOSITIONS AND METHODS OF USE” (THE CHEMOURS COMPANY FC, LLC, priority 2009, published 2016).

Assay: pNPA microplate assay (enzyme specific activity)
Format: biochemical
Conditions: 30 °C, pH 7.2
Description: Into each of four wells of a 96-well microplate were added 170 μL of potassium phosphate buffer (50 mM, pH 7.2) and either 10 μL of 0.1 mg total protein/mL of cell lysate, or 10 μL of 0.02 mg total protein/mL of a spray-dried enzyme solution. The plate was covered and placed in a microplate reader (Molecular Devices SPECTRAmax® 384 Plus), then mixed for several seconds and equilibrated at 30° C. for 10 minutes. To each well of the plate was then simultaneously added 20 μL of a 30 mM pNPA solution prepared by mixing (immediately prior to use) 0.6 mL of 100 mM pNPA in acetonitrile with 1.4 mL of 50 mM potassium phosphate buffer (pH 7.2). The change in absorbance at 400 nm was measured over 1 minute of reaction time. The background rate of pNPA hydrolysis (subtracted from the rate of hydrolysis measured in the presence of enzyme) was separately measured in four wells by substituting 10 μL/well of potassium phosphate buffer (50 mM, pH 7.2) for cell lysate or enzyme-containing solution. The extinction coefficient for para-nitrophenol, measured at pH 7.2 in a 1-cm path length cell, was 10,909 L·cm^−1·mol^−1. One pNPA Unit of enzyme activity is equivalent to the amount of protein that catalyzes the hydrolysis of one micromole of pNPA in one minute.

Molecule	Specific activity of spray-dried enzyme powder
T. maritima perhydrolase spray-dried enzyme powder: Spray-dried wild type acetyl xylan esterase from Thermotoga maritima, 27.8 wt % protein (protein, UniProt Q9WXT2 1-325, looked up, spray-dried powder, Spray-dried wild type acetyl xylan esterase from Thermotoga maritima, 27.8 wt % protein) Cephalosporin-C deacetylase: MAFFDLPLEELKKYRPERYEEKDFDEFWEETLAESEKFPLDPVFERMESHLKTVEAYDVTFSGYRGQRIKGWLLVPKLEEEKLPCVVQYIGYNGGRGFPHDWLFWPSMGYICFVMDTRGQGSGWLKGDTPDYPEGPVDPQYPGFMTRGILDPRTYYYRRVFTDAVRAVEAAASFPQVDQERIVIAGGSQGGGIALAVSALSKKAKALLCDVPFLCHFRRAVQLVDTHPYAEITNFLKTHRDKEEIVFRTLSYFDGVNFAARAKIPALFSVGLMDNICPPSTVFAAYNYYAGPKEIRIYPYNNHEGGGSFQAVEQVKFLKKLFEKG	86.1 pNPA U/mg protein
T. maritima C277S perhydrolase spray-dried enzyme powder: Spray-dried T. maritima acetyl xylan esterase C277S mutant, 25.5 wt % protein (protein, UniProt Q9WXT2 1-325, looked up, variant C277S, spray-dried powder, Spray-dried T. maritima acetyl xylan esterase C277S mutant, 25.5 wt % protein) Cephalosporin-C deacetylase: MAFFDLPLEELKKYRPERYEEKDFDEFWEETLAESEKFPLDPVFERMESHLKTVEAYDVTFSGYRGQRIKGWLLVPKLEEEKLPCVVQYIGYNGGRGFPHDWLFWPSMGYICFVMDTRGQGSGWLKGDTPDYPEGPVDPQYPGFMTRGILDPRTYYYRRVFTDAVRAVEAAASFPQVDQERIVIAGGSQGGGIALAVSALSKKAKALLCDVPFLCHFRRAVQLVDTHPYAEITNFLKTHRDKEEIVFRTLSYFDGVNFAARAKIPALFSVGLMDNISPPSTVFAAYNYYAGPKEIRIYPYNNHEGGGSFQAVEQVKFLKKLFEKG	129.5 pNPA U/mg protein
